# B1: mAb 20.1: murine anti-CD277 antibody obtainable from the hybridoma CNCM I-4402; agonist (antibody, V domains shown)
# VH: QVQLQQSGAELVKPGASVKLSCKASGYTFTRYYLYWVKQRPGQGLEWIGEINPNNGGTKFNEKFKSKATLTVDKSSRTTYIQLSSLTSEDSAVYYCSREDDYDGTPDAMDYWGQGTAVTVSS
# VL: DIQMNQSPSSLSASLGDTITITCHASQNINLWLSWYQQRPGNIPKLLIYRASNLHTGVPSRFSGSGSATGFTLTISSLQPEDIATYYCQQGHSYPYTFGGGTKLDIK
# Columns and labels:
# [1] = test system: primary AML blasts; test: Chromium release assay, lysis of primary AML blasts by Vγ9Vδ2 T cells; format: cell-based, human
# Procedure: Effector γδ T cells were established and maintained as previously described^28. PBMC from HV were stimulated with ZOL (1 μm) and rhlL-2 (200 IU/ml) at Day 0. From Day 5, rhIL-2 was renewed every two days and cells were kept at 1.5×10^6/m1 for 15 days. NK cells were isolated using EASYSEP® Human NK cell enrichment kit (StemCell Technologies). The purity of γδ T cells and NK cells was determined by flow cytometry and respectively greater than 80% and 98%. The Burkitt lymphoma cell line, DAUDI, the human AML cell line, U937, and the erythroleukemic cell line, K562, were obtained from the American Type Culture Collection and cultured (0.5×10^6/ml) in RPMI 1640 medium with 10% FCS. BTN3A Knock-down HEK293FT cells (sh #284; clone #30) were provided by E.Scotet (Inserm U892, Nantes), cultured and transfected with BTN3A1, BTN3A2, BTN3A3 mutated cDNA-containing plasmids, as described^23.
# 0.5×10^6 target cells were incubated with 50 pCi of ^51Cr (Perkin-Elmer) for AML blasts and 10 pCi for DAUDI and K562 cells for 90 minutes and mixed with effector cells in a Effector:Target (E:T) ratio of […]. After 4 hours of incubation at 37° C., 50p1 supernatant of each sample was transferred in LUMA® plates and radioactivity was determined by a gamma counter. The percentage of specific lysis was calculated using the formula [(experimental−spontaneous release/total−spontaneous release)×100] and expressed as the mean of triplicate.
# [2] = test system: Vγ9Vδ2 T cells; test: Flow cytometry of Vγ9Vδ2 T cells co-cultured with AML blasts (trogocytosis, CD107a, cytokines); format: cell-based, human
# Procedure: 2×10^5 PBMC were washed in PBS (Cambrex Bio Science) and incubated at 4° C. for 20 min with specified mAb. Following incubation and washing, samples were analyzed on LSRFORTESSA® or FACS CANTO® II (Becton Dickinson) using DIVA® software (BD bioscience, Mountain View, Calif.). For analysis of CD107 expression, γδ T cells were incubated at 37° C. in the presence of anti-CD107a and GOLGISTOP® with or without anti-BTN3A 20.1 mAb. After 4 hours, cells were collected, washed in PBS and analyzed by flow cytometry. To study cytokine production, cells were further permeabilized with PERMWASH® (BD bioscience) to allow intracellular staining with labeled antibodies. Trogocytosis of PKH67 (Sigma Aldrich) labeled blasts by γδ T cells was quantified as previously described^29.
# [3] = 4-hour co-culture with AML blasts
molecule,measurement,setting,value
B1,Vγ9Vδ2 T cell lysis of ZOL-resistant or ZOL-poorly responsive AML blasts,[1]; E:T 30:1,significantly enhanced
same,enhancement of Vγ9Vδ2 T cells lysis of AML blasts compared with BrHpp,"[1]; E:T 30:1, ZOL 45 μM O/N, 20.1 mAb 10 μg/ml, BrHpp 2 μM",significantly more efficient
same,specific lysis of AML blasts,"[1]; Vγ9Vδ2 T cells pre-incubated with mAb (10 μg/ml, 90 minutes), washed",~4.36±2.11%
same,"AML blasts lysis by Vγ9Vδ2 T cells, addition to ZOL",[1]; anti-BTN3A 20.1 mAb added to ZOL,poor but significant
same,specific lysis of AML blasts,"[1]; blasts pre-incubated with mAb (10 μg/ml, 90 minutes), washed",22.92±7.64%
same,sensitization of blasts from UPN09 to Vγ9Vδ2 T cells lysis in vitro,[1]; data not shown,highly sensitized
same,specific lysis of AML blasts,"[1]; simultaneous incubation of effector cells, target cells and mAb",35.95±1.16%
same,cytokine production of IFNγ by Vγ9Vδ2 T cells,[2]; [3],greater
same,cytokine production of TNFα by Vγ9Vδ2 T cells,[2]; [3],greater
same,degranulation assessed by the expression of CD107a,[2]; [3],greater ability to degranulate
same,trogocytosis of AML blasts by Vγ9Vδ2 T cells,"[2]; 1 hour co-culture, vs IgG1",significantly enhanced

# — US11904004B2, “Anti-CD277 antibodies” (INSTITUT NATIONAL DE LA SANTE ET DE LA RECHERCHE MEDICALE …, priority 2010, dated 2024)
